In paper PMC10132761:
Numbering of substitutions follows the chain as printed. Names may count otherwise. One block for each binder: values may come before it.

Biological target: peptide encoding HTP-3 closure motif #4 (C. elegans)
Assay: fluorescence polarisation; 50 nM N-terminal FITC-Ahx peptide plus indicated amounts of HIM-3 (WT or R93Y); 20 mM Tris pH 7.5, 300 mM NaCl, 10% glycerol, 1 mM DTT, 0.1% NP-40; 60 minutes at room temperature; triplicate; single-site binding model

Kd: 220 nM
B1: HIM-3 (wildtype, residues 2-291) (natural protein)
chain: ATKEQIVEHRESEIPIASQWKATFPVDLEIEKNSEMFALRYIKCASAFILDRRGILDEKCFKTRTIDKLLVTAFQSSVPAAKRVSSTFDGLRDAIQQGYLREFAIVFYKKPNEEDINEVFAFRFAYGDEGEIFVSLNNGIDTNESSQELLQAKFVDTDNTKQMFASTIKKLHRCIKKMEPLPQGSDASFRVSYTEKAPKDYTPEGYLLSPMFYTLNQDIRKASIGIVCGGHHKIQMLAASQYLKQDFDLDKTTTLNPNMSIMANQSKRKGRISRDSPYGLSQGITKKNKD

Kd: 690 nM
B2: HIM-3^R93Y (residues 2-291) (natural protein)
chain: B1 chain with R92Y
